Experimental data taken from US20240270821A1, “GIP/GLP1/GCG TRI-RECEPTOR AGONISTS AND USES THEREOF” (priority 2023, published 2024).

Tests used:
Experiment in all cases: cell-based or functional assay
[1] = target: T1, human GIP receptor (human) (UniProt P48546)
T1 sequence (looked up): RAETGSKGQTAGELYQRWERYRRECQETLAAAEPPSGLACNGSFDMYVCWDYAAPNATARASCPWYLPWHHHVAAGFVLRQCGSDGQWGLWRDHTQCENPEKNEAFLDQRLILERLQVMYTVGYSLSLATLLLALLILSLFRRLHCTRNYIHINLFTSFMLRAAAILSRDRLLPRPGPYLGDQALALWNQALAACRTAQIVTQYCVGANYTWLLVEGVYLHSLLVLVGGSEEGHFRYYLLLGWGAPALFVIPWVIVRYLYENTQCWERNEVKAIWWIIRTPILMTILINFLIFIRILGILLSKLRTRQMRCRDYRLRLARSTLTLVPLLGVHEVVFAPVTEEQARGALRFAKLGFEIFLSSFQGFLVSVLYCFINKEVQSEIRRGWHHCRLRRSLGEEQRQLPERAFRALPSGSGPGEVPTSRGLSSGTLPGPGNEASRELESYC

hGLP-1R = hGLP-1R (Homo sapiens, UniProt P43220)
Sequence of hGLP-1R (P43220 24-463): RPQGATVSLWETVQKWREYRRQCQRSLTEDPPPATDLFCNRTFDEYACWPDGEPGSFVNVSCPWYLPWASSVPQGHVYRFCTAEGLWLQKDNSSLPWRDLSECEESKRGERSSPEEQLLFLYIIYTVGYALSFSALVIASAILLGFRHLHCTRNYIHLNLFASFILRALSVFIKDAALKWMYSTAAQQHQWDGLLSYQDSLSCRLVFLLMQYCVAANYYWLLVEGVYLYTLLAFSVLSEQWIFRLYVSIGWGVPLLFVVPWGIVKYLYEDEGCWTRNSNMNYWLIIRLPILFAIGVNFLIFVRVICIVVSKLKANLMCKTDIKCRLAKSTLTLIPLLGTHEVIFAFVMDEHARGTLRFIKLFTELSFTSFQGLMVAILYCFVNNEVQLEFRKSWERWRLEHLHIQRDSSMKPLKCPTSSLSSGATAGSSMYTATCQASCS

[2] = target: human glucagon receptor (human) (UniProt P47871)
Sequence of human glucagon receptor (human) (P47871 26-477): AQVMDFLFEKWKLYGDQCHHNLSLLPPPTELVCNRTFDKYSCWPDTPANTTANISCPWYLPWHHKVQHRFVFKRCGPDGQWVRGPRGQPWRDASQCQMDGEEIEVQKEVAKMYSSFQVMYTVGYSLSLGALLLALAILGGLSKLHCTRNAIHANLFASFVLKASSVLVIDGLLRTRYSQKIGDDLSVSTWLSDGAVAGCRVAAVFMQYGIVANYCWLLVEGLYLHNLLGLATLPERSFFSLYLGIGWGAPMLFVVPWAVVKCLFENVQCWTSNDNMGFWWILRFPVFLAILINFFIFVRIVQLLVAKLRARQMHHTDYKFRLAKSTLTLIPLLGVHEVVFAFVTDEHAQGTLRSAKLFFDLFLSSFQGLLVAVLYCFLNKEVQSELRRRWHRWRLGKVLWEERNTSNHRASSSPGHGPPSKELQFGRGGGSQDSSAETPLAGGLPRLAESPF

B1: Example 640 (peptide)
chain: YXQGTXTSDXSIXLDXKAQXEFIEXLIEGGPSSGAPPPSGS
modifications: non-natural residues; Lys acylated C18 diacid; C-terminal amide; synthetic construct; SITE 2: note = 2-Aminoisobutyric Acid; SITE 6: note = alpha-methyl-2-fluoro-L-phenylalanine; SITE 10: note = 3-(4-Pyridyl)-L-alanine; SITE 13: note = alpha-methyl-leucine; SITE 16: note = L-ornithine; SITE 17: note = Lysine is chemically modified through conjugation of the epsil
- Relative cAMP EC50 [1]: 0.00696 nM
- cAMP Rel EC50 (in the presence of 1% HSA) [1]: 0.591 nM
- Relative cAMP EC50 (hGLP-1R): 0.288 nM
- cAMP Rel EC50 (in the presence of 1% HSA) (hGLP-1R): 27.8 nM
- Relative cAMP EC50 [2]: 9.5 nM
- cAMP Rel EC50 (in the presence of 1% HSA) [2]: 730 nM

B2: Example 644 (peptide)
chain: YXQGTXTSDXSIXLDXKAQXEFIEXLIEGGPSSGEPPPSGS
modifications: non-natural residues; lipidated Lys AEEA-γGlu-C18 diacid; C-term amide; synthetic construct; SITE 2: note = 2-Aminoisobutyric Acid; SITE 6: note = alpha-methyl-2-fluoro-L-phenylalanine; SITE 10: note = 3-(4-Pyridyl)-L-alanine; SITE 13: note = alpha-methyl-leucine; SITE 16: note = L-ornithine; SITE 17: note = Lysine is chemically modified through conjugation of the epsil
- Relative cAMP EC50 [1]: 0.00649 nM
- cAMP Rel EC50 (in the presence of 1% HSA) [1]: 0.601 nM
- Relative cAMP EC50 (hGLP-1R): 0.309 nM
- cAMP Rel EC50 (in the presence of 1% HSA) (hGLP-1R): 34.3 nM
- Relative cAMP EC50 [2]: 5.91 nM
- cAMP Rel EC50 (in the presence of 1% HSA) [2]: 626 nM

B3: Example 646 (peptide)
chain: YXQGTXTSDXSIXLDXKAQXEFIEXLAEGGPSSGAPPPSGS
modifications: Aib, αMeF(2F), 4Pal, Orn, Me4Pal, αMeY; K (γGlu)2-C18 diacid; amide; synthetic construct; SITE 2: note = 2-Aminoisobutyric Acid; SITE 6: note = alpha-methyl-2-fluoro-L-phenylalanine; SITE 10: note = 3-(4-Pyridyl)-L-alanine; SITE 13: note = alpha-methyl-leucine; SITE 16: note = L-ornithine; SITE 17: note = Lysine is chemically modified through conjugation of the epsil
- Relative cAMP EC50 [1]: 0.0336 nM
- cAMP Rel EC50 (in the presence of 1% HSA) [1]: 1.09 nM
- Relative cAMP EC50 (hGLP-1R): 2.58 nM
- cAMP Rel EC50 (in the presence of 1% HSA) (hGLP-1R): 90.5 nM
- Relative cAMP EC50 [2]: 23.1 nM
- cAMP Rel EC50 (in the presence of 1% HSA) [2]: 1260 nM

B4: Example 645 (peptide)
chain: YXQGTXTSDXSIXLDXKAQXEFIEXLLEGGPSSGEPPPSGS
modifications: non-natural residues; lipidated Lys; C-terminal amide; synthetic construct; SITE 2: note = 2-Aminoisobutyric Acid; SITE 6: note = alpha-methyl-2-fluoro-L-phenylalanine; SITE 10: note = 3-(4-Pyridyl)-L-alanine; SITE 13: note = alpha-methyl-leucine; SITE 16: note = L-ornithine; SITE 17: note = Lysine is chemically modified through conjugation of the epsil
- Relative cAMP EC50 [1]: 0.00724 nM
- cAMP Rel EC50 (in the presence of 1% HSA) [1]: 0.863 nM
- Relative cAMP EC50 (hGLP-1R): 0.596 nM
- cAMP Rel EC50 (in the presence of 1% HSA) (hGLP-1R): 76.3 nM
- Relative cAMP EC50 [2]: 3.25 nM
- cAMP Rel EC50 (in the presence of 1% HSA) [2]: 398 nM

B5: Example 641 (peptide)
chain: YXQGTXTSDXSIXLDXKAQXEFIEXLLEGGPSSGAPPPSGS
modifications: Lys acylated AEEA-γGlu-C18 diacid; non-natural residues; C-terminal amide; synthetic construct; SITE 2: note = 2-Aminoisobutyric Acid; SITE 6: note = alpha-methyl-2-fluoro-L-phenylalanine; SITE 10: note = 3-(4-Pyridyl)-L-alanine; SITE 13: note = alpha-methyl-leucine; SITE 16: note = L-ornithine; SITE 17: note = Lysine is chemically modified through conjugation of the epsil
- Relative cAMP EC50 [1]: 0.00819 nM
- cAMP Rel EC50 (in the presence of 1% HSA) [1]: 0.832 nM
- Relative cAMP EC50 (hGLP-1R): 0.489 nM
- cAMP Rel EC50 (in the presence of 1% HSA) (hGLP-1R): 68.3 nM
- Relative cAMP EC50 [2]: 3.72 nM
- cAMP Rel EC50 (in the presence of 1% HSA) [2]: 451 nM

B6: Example 643 (peptide)
chain: YXQGTXTSDXSIXLDXKAQXEFIEXLQEGGPSSGAPPPSGS
modifications: non-natural residues, acylated Lys (AEEA-γGlu-C18 diacid), C-terminal amide; synthetic construct; SITE 2: note = 2-Aminoisobutyric Acid; SITE 6: note = alpha-methyl-2-fluoro-L-phenylalanine; SITE 10: note = 3-(4-Pyridyl)-L-alanine; SITE 13: note = alpha-methyl-leucine; SITE 16: note = L-ornithine; SITE 17: note = Lysine is chemically modified through conjugation of the epsil
- Relative cAMP EC50 [1]: 0.0223 nM
- cAMP Rel EC50 (in the presence of 1% HSA) [1]: 1.61 nM
- Relative cAMP EC50 (hGLP-1R): 0.741 nM
- cAMP Rel EC50 (in the presence of 1% HSA) (hGLP-1R): 60.1 nM
- Relative cAMP EC50 [2]: 16 nM
- cAMP Rel EC50 (in the presence of 1% HSA) [2]: 1170 nM

B7: Example 642 (peptide)
chain: YXQGTXTSDXSIXLDXKAQXEFIEXLAEGGPSSGAPPPSGS
modifications: non-natural residues; acylated Lys; C-terminal amide; synthetic construct; SITE 2: note = 2-Aminoisobutyric Acid; SITE 6: note = alpha-methyl-2-fluoro-L-phenylalanine; SITE 10: note = 3-(4-Pyridyl)-L-alanine; SITE 13: note = alpha-methyl-leucine; SITE 16: note = L-ornithine; SITE 17: note = Lysine is chemically modified through conjugation of the epsil
- Relative cAMP EC50 [1]: 0.00796 nM
- cAMP Rel EC50 (in the presence of 1% HSA) [1]: 0.791 nM
- Relative cAMP EC50 (hGLP-1R): 0.474 nM
- cAMP Rel EC50 (in the presence of 1% HSA) (hGLP-1R): 67.1 nM
- Relative cAMP EC50 [2]: 3.49 nM
- cAMP Rel EC50 (in the presence of 1% HSA) [2]: 519 nM

B8: Example 634 (peptide)
chain: YXQGTXTSDXSIXLDKKAQXAFIEYLQEGGPSSGEPPPSGSEE
modifications: (γGlu)2-C18 diacid on Lys; non-natural residues; amide; synthetic construct; SITE 2: note = 2-Aminoisobutyric Acid; SITE 6: note = alpha-methyl-2-fluoro-L-phenylalanine; SITE 10: note = 3-(4-Pyridyl)-L-alanine; SITE 13: note = alpha-methyl-leucine; SITE 17: note = Lysine is chemically modified through conjugation of the epsilon-amino group of the Lysine
- Relative cAMP EC50 [1]: 0.0195 nM
- cAMP Rel EC50 (in the presence of 1% HSA) [1]: 1.48 nM
- Relative cAMP EC50 (hGLP-1R): 0.403 nM
- cAMP Rel EC50 (in the presence of 1% HSA) (hGLP-1R): 34.9 nM
- Relative cAMP EC50 [2]: 6.49 nM
- cAMP Rel EC50 (in the presence of 1% HSA) [2]: 979 nM

B9: Example 661 (peptide)
chain: YXQGTXTSDXSILLDKKAQXAFIEYLXEGGPSSGAPPPSGTGE
modifications: synthetic construct; SITE 2: note = 2-Aminoisobutyric Acid; SITE 6: note = alpha-methyl-2-fluoro-L-phenylalanine; SITE 10: note = 3-(4-Pyridyl)-L-alanine; SITE 17: note = Lysine is chemically modified through conjugation of the epsilon-amino group of the Lysine side chain with (gamma-Glu)2-CO-(CH2)1
- cAMP Rel EC50 (1% HSA) [1]: 4.62 nM
- cAMP Rel EC50 (1% HSA) (hGLP-1R): 50.9 nM
- cAMP Rel EC50 (1% HSA) [2]: 160 nM

B10: Example 650 (peptide)
chain: YXQGTXTSDXSIXLDKKAQXXFIEYLAEGGPSSGEPPPEGSEE
modifications: synthetic construct; SITE 2: note = 2-Aminoisobutyric Acid; SITE 6: note = alpha-methyl-2-fluoro-L-phenylalanine; SITE 10: note = 3-(4-Pyridyl)-L-alanine; SITE 13: note = alpha-methyl-leucine; SITE 17: note = Lysine is chemically modified through conjugation of the epsilon-amino group of the Lysine
- cAMP Rel EC50 (1% HSA) [1]: 3.1 nM
- cAMP Rel EC50 (1% HSA) (hGLP-1R): 31.4 nM
- cAMP Rel EC50 (1% HSA) [2]: 574 nM

B11: Example 663 (peptide)
chain: YXQGTXTSDXSILLDKKAQXAFIEYLXEGGPSSGAPPPSGTGE
modifications: synthetic construct; SITE 2: note = 2-Aminoisobutyric Acid; SITE 6: note = alpha-methyl-2-fluoro-L-phenylalanine; SITE 10: note = 3-(4-Pyridyl)-L-alanine; SITE 17: note = Lysine is chemically modified through conjugation of the epsilon-amino group of the Lysine side chain with (2-[2-(2-Amino-ethoxy))
- cAMP Rel EC50 (1% HSA) [1]: 10.2 nM
- cAMP Rel EC50 (1% HSA) (hGLP-1R): 79 nM
- cAMP Rel EC50 (1% HSA) [2]: 226 nM

B12: Example 666 (peptide)
chain: YXQGTXTSDXSILLDKKAQXAFIEXLEEGGPSSGAPPPSGSGE
modifications: synthetic construct; SITE 2: note = 2-Aminoisobutyric Acid; SITE 6: note = alpha-methyl-2-fluoro-L-phenylalanine; SITE 10: note = 3-(4-Pyridyl)-L-alanine; SITE 17: note = Lysine is chemically modified through conjugation of the epsilon-amino group of the Lysine side chain with (gamma-Glu)2-CO-(CH2)1
- cAMP Rel EC50 (1% HSA) [1]: 1.39 nM
- cAMP Rel EC50 (1% HSA) (hGLP-1R): 32.3 nM
- cAMP Rel EC50 (1% HSA) [2]: 224 nM

B13: Example 653 (peptide)
chain: YXQGTXTSDXSIXLDKKAQXXFIEYLQEGGPSSGEPPPEGSEE
modifications: synthetic construct; SITE 2: note = 2-Aminoisobutyric Acid; SITE 6: note = alpha-methyl-2-fluoro-L-phenylalanine; SITE 10: note = 3-(4-Pyridyl)-L-alanine; SITE 13: note = alpha-methyl-leucine; SITE 17: note = Lysine is chemically modified through conjugation of the epsilon-amino group of the Lysine
- cAMP Rel EC50 (1% HSA) [1]: 1.38 nM
- cAMP Rel EC50 (1% HSA) (hGLP-1R): 25 nM
- cAMP Rel EC50 (1% HSA) [2]: 542 nM

B14: Example 636 (peptide)
chain: YXQGTXTSDXSIXLDKKAQXXFIEYLAEGGPSSGEPPPSGSEE
modifications: non-natural residues; C18 diacid-(γ-Glu)2 acyl on Lys; C-terminal amide; synthetic construct; SITE 2: note = 2-Aminoisobutyric Acid; SITE 6: note = alpha-methyl-2-fluoro-L-phenylalanine; SITE 10: note = 3-(4-Pyridyl)-L-alanine; SITE 13: note = alpha-methyl-leucine; SITE 17: note = Lysine is chemically modified through conjugation of the epsilon-amino group of the Lysine
- Relative cAMP EC50 [1]: 0.054 nM
- cAMP Rel EC50 (in the presence of 1% HSA) [1]: 4.3 nM
- Relative cAMP EC50 (hGLP-1R): 0.504 nM
- cAMP Rel EC50 (in the presence of 1% HSA) (hGLP-1R): 36.6 nM
- Relative cAMP EC50 [2]: 9.28 nM
- cAMP Rel EC50 (in the presence of 1% HSA) [2]: 935 nM

B15: Example 635 (peptide)
chain: YXQGTXTSDXSIXLDKKAQXXFIEYLEEGGPSSGEPPPSGSEE
modifications: non-natural residues; C18 diacid-(γ-Glu)2 acyl on Lys; C-terminal amide; synthetic construct; SITE 2: note = 2-Aminoisobutyric Acid; SITE 6: note = alpha-methyl-2-fluoro-L-phenylalanine; SITE 10: note = 3-(4-Pyridyl)-L-alanine; SITE 13: note = alpha-methyl-leucine; SITE 17: note = Lysine is chemically modified through conjugation of the epsilon-amino group of the Lysine
- Relative cAMP EC50 [1]: 0.0405 nM
- cAMP Rel EC50 (in the presence of 1% HSA) [1]: 2.7 nM
- Relative cAMP EC50 (hGLP-1R): 0.625 nM
- cAMP Rel EC50 (in the presence of 1% HSA) (hGLP-1R): 53.9 nM
- Relative cAMP EC50 [2]: 7.09 nM
- cAMP Rel EC50 (in the presence of 1% HSA) [2]: 753 nM
